Laboratory results taken from paper PMC9134599.

How the values were obtained:
[1] = biological target: human amylin 1 receptor (CTR + RAMP1) (human) (UniProt O60894)
[2] = biological target: human calcitonin receptor, transcript variant 2 (CT(a) subtype), expressed alone (human)

Chain of human amylin (P10997 34-70): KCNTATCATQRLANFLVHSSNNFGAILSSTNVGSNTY
Chain of UniProt O60894 (O60894 whole entry, looked up): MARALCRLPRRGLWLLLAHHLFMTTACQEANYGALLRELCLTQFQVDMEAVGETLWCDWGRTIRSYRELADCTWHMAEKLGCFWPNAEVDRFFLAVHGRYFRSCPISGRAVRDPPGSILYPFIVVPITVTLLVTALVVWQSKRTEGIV

Substance | pEC50 of the amylin-induced current (two-electrode voltage clamp, -70 mV), oocytes expressing AMY1-R, amylin 0.01 to 10 μM [1] | inward current (two-electrode voltage clamp, -70 mV), oocytes expressing CTR, CGRP 0.01 to 10 μM; maximum at 10 μM [2] [μA] | pEC50 of the CGRP-induced inward current (two-electrode voltage clamp, holding potential -70 mV), oocytes expressing CTR [2]
human amylin (from UniProt P10997 34-70) (peptide) | 6.33 -log M |  | 
human α-CGRP (calcitonin gene-related peptide) (from UniProt P06881 83-119) |  | -1.07 | 5.42 -log M
